Measured values published in patent US20260144882A1 (BIO THERA SOLUTIONS, published 2026).
Where “and” joins values, the source holds several entries; their conditions need not be identical. Equal entries are not always repeated.

T1: human Nectin-4, full length on cells (human, UniProt Q96NY8 32-510)
T1 construct: whole, on cells; T-47D cells positive for Nectin-4 expression; also called Nectin-4 on T-47D cells; CHO-Nectin-4
T1 sequence (looked up): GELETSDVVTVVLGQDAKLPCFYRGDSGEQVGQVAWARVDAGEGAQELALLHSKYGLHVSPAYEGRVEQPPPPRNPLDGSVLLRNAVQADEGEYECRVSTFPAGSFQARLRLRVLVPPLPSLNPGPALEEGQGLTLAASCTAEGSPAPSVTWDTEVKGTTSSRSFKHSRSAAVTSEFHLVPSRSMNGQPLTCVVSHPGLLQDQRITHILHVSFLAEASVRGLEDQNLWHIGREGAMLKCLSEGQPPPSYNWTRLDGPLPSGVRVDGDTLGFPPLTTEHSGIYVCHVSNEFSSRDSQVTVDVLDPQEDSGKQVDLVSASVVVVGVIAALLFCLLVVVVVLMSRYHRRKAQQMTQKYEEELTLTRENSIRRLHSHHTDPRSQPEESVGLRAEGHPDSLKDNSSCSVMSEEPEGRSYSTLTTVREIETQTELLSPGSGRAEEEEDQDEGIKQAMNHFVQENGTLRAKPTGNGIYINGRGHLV

T2: human Nectin-4 extracellular antigen hNectin-4-His (human, UniProt Q96NY8 32-349)
T2 construct: C-terminal 8xHis tag included
T2 sequence: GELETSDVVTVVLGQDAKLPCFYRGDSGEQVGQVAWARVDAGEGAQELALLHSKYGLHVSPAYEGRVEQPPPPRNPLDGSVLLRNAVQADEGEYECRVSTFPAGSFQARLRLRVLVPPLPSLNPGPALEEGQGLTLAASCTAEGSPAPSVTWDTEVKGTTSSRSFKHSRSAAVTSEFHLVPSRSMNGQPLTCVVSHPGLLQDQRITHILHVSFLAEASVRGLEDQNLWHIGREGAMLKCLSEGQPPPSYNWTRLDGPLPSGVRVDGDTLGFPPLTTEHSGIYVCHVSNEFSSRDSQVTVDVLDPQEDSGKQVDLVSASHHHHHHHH

T3: mouse mNectin-4 protein (ACRO, NE4-M52H3) (mouse, UniProt Q8R007 31-347)
T3 construct: bought; construct not described; also called mouse Nectin-4
T3 sequence (looked up): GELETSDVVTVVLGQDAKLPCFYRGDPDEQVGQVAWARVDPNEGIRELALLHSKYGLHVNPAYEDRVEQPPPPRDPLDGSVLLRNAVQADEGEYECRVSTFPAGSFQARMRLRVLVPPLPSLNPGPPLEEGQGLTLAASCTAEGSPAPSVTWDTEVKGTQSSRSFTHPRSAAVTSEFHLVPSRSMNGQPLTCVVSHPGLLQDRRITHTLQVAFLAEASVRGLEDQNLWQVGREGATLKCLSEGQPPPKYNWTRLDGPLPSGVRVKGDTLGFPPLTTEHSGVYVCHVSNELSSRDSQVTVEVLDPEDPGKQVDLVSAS

T4: monkey cNectin-4 protein (ACRO, NE4-C52H4) (cynomolgus monkey, UniProt A0A2K5WES1 32-349)
T4 construct: bought; construct not described; also called cynomolgus monkey Nectin-4
T4 sequence: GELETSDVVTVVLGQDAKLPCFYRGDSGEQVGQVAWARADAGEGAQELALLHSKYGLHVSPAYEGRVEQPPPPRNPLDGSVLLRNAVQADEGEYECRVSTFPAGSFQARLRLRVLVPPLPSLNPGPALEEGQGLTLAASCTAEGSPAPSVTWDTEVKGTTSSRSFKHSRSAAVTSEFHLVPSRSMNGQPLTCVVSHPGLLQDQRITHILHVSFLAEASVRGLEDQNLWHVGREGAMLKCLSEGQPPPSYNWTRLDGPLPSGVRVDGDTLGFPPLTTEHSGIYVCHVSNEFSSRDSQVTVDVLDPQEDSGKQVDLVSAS


What was measured:
[1] = target: T1, human Nectin-4, full length on cells; assay: flow cytometry on T-47D cells
Description: In this study, the binding activity of different antibodies to T-47D cells positive for Nectin-4 expression was detected by FACS, and the EC₅₀ for the binding of antibodies to the cells was analyzed by a four-parameter method. The procedures are briefly described as follows: T-47D cells (the Cell Bank of Chinese Academy of Sciences, TCHu 87) were trypsinized; the antibodies were serially diluted and co-incubated with T-47D cells at 4° C. for 0.5-1 h, followed by the addition of the secondary PE-labeled anti-human Fc antibody (Invitrogen, 12-4998-82); the signal intensity of red fluorescence was detected on a flow cytometer, and curves were plotted using Graphpad Prism and the EC₅₀ was calculated.

[2] = target: T2, human Nectin-4 extracellular antigen …; assay: ELISA, coated hNectin-4-His
Description: The binding activity of the antibodies was detected by ELISA.

[3] = target: T1, human Nectin-4, full length on cells; assay: flow cytometry, T-47D cells, antibody bound on ice, 0 h at 37 C
Description: In this assay, the relative amount of antibodies remaining on the cell surface after co-incubation at 37° C. for a certain period of time was detected by FACS to reflect the endocytosis efficiency. The procedures are briefly described as follows: T-47D cells (human ductal breast cancer cells, derived from the Cell Bank of Chinese Academy of Sciences, Cat.No. TCHu 87); the antibodies of interest were adjusted to 10 µg/mL and co-incubated with the cells on ice for 1 h; the cells were washed 3 times with pre-cooled PBS, and then placed at 37° C. and incubated for 0 h, 2 h and 4 h; 0.2% N₃Na was added to stop the endocytosis reaction; the cells were washed with PBS thrice, followed by the addition of the PE-labeled anti-human Fc secondary antibody (Invitrogen 12-4998-82); the cells were incubated at 4° C. for 30 min; the red fluorescence signal was detected on a flow cytometer.

[4] = target: T2, human Nectin-4 extracellular antigen …; assay: SPR, antibody on Protein A chip, hNectin-4-His analyte, 1:1 fit
Description: (§1) In this study, the affinity of the antibodies for the human Nectin-4 extracellular antigen was detected by surface plasmon resonance (SPR) technique (BIAcore: GE Healthcare, T200).

[5] = target: T2, human Nectin-4 extracellular antigen …; assay: SPR, antibody on Protein A chip, 1:1 fit
Description: as §1

[6] = target: T2, human Nectin-4 extracellular antigen …; assay: ELISA, coated antigen
[7] = target: T3, mouse mNectin-4 protein (ACRO, …); assay: ELISA, coated antigen
[8] = target: T4, monkey cNectin-4 protein (ACRO, …); assay: ELISA, coated antigen

Binder | EC50 [1] | EC50 [2] [µg/mL] | MFI (mean fluorescence intensity) 0 h [3] [MFI] | Kd [4] [nM] | koff [4] [s⁻¹] | kon [4] [M⁻¹ s⁻¹] | Kd [5] [nM] | koff [5] [s⁻¹] | kon [5] [M⁻¹ s⁻¹] | EC50 [6] [µg/mL] | EC50 [7] [µg/mL] | EC50 [8] [µg/mL]
antibody 1G8 (antibody, human IgG1, kappa, V domains shown) VH: not shown VL: DIQMTQSPSSLSASVGDRVTITCRASQGISSYLAWYQQKPGKAPKLLIYAASSLQSGVPSRFSGSGSGTDFTLTISSLQPEDFATYYCQQHYTTPPTFGQGTKVEIKR | 0.109 µg/mL and 0.727 nM | 0.068 | 105000 | 4.97 | 0.003 | 605000 | 4.97 | 0.003 | 605000 | 0.043 | 0.037 | 0.036
antibody 10F4 (antibody, human IgG1, kappa, V domains shown) VH: not shown VL: DIQMTQSPSSLSASVGDRVTITCRASQGISSYLAWYQQKPGKAPKLLIYAASSLQSGVPSRFSGSGSGTDFTLTISSLQPEDFATYYCQQHYTTPPTFGQGTKVEIKR | 0.156 µg/mL and 1.04 nM | 0.038 | 104000 | 2.77 | 0.00103 | 373000 | 3.23 | 0.00121 | 375000 | 0.041 | 0.041 | 0.041
antibody 1F3 (antibody, human IgG1, kappa, V domains shown) VH: not shown VL: DIQMTQSPSSLSASVGDRVTITCRASQGISSYLAWYQQKPGKAPKLLIYAASSLQSGVPSRFSGSGSGTDFTLTISSLQPEDFATYYCQQHYTTPPTFGQGTKVEIKR | 0.116 µg/mL and 0.77 nM | 0.041 | 121000 | 3.21 | 0.00261 | 813000 | 2.49 | 0.00195 | 785000 | 0.036 | 0.034 | 0.034
